No end group written: not given here. *: point of attachment. Biotin = O=C1N[C@H]2[C@H](CS[C@H]2CCCCC(=O)*)N1
How the values were obtained:
INADL d3 = target: T1, INADL d3 (Homo sapiens, UniProt Q8NI35); assay: G assay, peptide binding to GST-PDZ fusion (Table 11); settings: Table 11, titrations or binding assays
T1 construct: made in house; host or cells: E. coli (DH5alpha, BL21 or JM109)
T1 sequence (Q8NI35 with tags, fused parts or gaps): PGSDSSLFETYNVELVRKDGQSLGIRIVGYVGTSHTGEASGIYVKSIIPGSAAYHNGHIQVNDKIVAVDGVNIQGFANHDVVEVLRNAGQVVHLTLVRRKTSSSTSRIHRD
Protocol: (§1) The binding of labeled PL peptide (e.g., as listed in TABLE 2 and TABLE 4) to this surface is then measured. In a preferred embodiment, the assay is carried out as follows:
(§2) (1) A PDZ-domain polypeptide is bound to a surface, e.g. a protein binding surface. In a preferred embodiment, a GST/PDZ fusion protein containing one or more PDZ domains is bound to a polystyrene 96-well plate. […] In one embodiment, the GST/PDZ fusion protein is bound via an anti-GST antibody that is coated onto the 96-well plate. Adequate binding to the plate can be achieved when:
(§3) (2) Biotinylated PL peptides are allowed to react with the surface by addition of 50 μl per well of 20 μM solution of the biotinylated peptide in PBS/BSA for 10 minutes at 4° C., followed by an additional 20 minute incubation at 25° C. The plate is washed 3 times with ice cold PBS.
(§4) (3) The binding of the biotinylated peptide to the GST/PDZ fusion protein surface can be detected using a variety of methods and detectors known to one of skill in the art. In one embodiment, 100 μl per well of 0.5 μg/ml streptavidin-horseradish peroxidase (HRP) conjugate dissolved in BSA/PBS is added and allowed to react for 20 minutes at 4° C. The plate is then washed 5 times with 50 mM Tris pH 8.0 containing 0.2% Tween 20, and developed by addition of 100 μl per well of HRP-substrate solution (TMB, Dako) for 20 minutes at room temperature (RT). The reaction of the HRP and its substrate is terminated by addition of 100 μl per well of 1 M sulfuric acid, and the optical density (O.D.) of each well of the plate is read at 450 um.
(§5) (4) Specific binding of a PL peptide and a PDZ domain polypeptide is determined by comparing the signal from the well(s) in which the PL peptide and PDZ domain polypeptide are combined, with the background signal(s). […] Typically a specific or selective reaction will be at least twice background signal, more typically more than 5 times background, and most typically 10 or more times the background signal. […] Correspondingly, a statistical test (e.g. a T-test) comparing repeated measurements of the signal with -repeated measurements of the background will result in a p-value <0.05, more typically a p-value <0.01, and most typically a p-value <0.001 or less. As noted, in an embodiment of the G assay, the signal from binding of a given PL peptide to immobilized (surface bound) GST polypeptide alone is one suitable negative control (sometimes referred to as B1). Because all measurement are done in multiples (i.e. at least duplicate) the arithmetic mean (or, equivalently, average.) of several measurements is used in determining the binding, and the standard error of the mean is used in determining the probable error in the measurement of the binding. The standard error of the mean of N measurements equals the square root of the following: the sum of the squares of the difference between each measurement and the mean, divided by the product of (N) and (N−1). Thus, in one embodiment, specific binding of the PDZ protein to the platebound peptide is determined by comparing the mean signal (“mean S”) and standard error of the signal (“SE”) for a particular PL-PDZ combination with the mean B1.

ZO-1 d2 = target: T2, ZO-1 d2 (Homo sapiens, UniProt Q07157, DEL264-264); assay: as above; settings: Table 11, titrations or binding assays
T2 construct: made in house; host or cells: E. coli (DH5alpha, BL21 or JM109)
T2 sequence (Q07157 with tags, fused parts or gaps DEL264-264): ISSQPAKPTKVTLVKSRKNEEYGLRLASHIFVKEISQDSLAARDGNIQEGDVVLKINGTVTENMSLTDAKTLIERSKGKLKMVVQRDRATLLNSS
Protocol: as §1, §2, §3, §4, §5

Sequence | PDZ domain bound (INADL d3) | PDZ domain bound (ZO-1 d2)
DFRPSFKHILFRRARRGFRQ | INADL D3 | ZO-1 D2
ELLQFCRTPNPALKNGQYWV | INADL D3 | ZO-1 D2
ENLELPVNPSSVVSERISSV (Biotin-ENLELPVNPSSVVSERISSV) | INADL D3 | –
FHSKTAGANTTDKELEVLSL | INADL D3 | ZO-1 D2
GRWTGRAMSAWKPTRRETEV (Biotin-GRWTGRAMSAWKPTRRETEV) | INADL D3 | –
HAMNAAPRAMENAPALRTSH (Biotin-HAMNAAPRAMENAPALRTSH) | INADL D3 | –
HDFRRAFKKILARGDRKRIV | INADL D3 | ZO-1 D2
HHLVAQRDIRQFQLQHWLAI | INADL D3 | ZO-1 D2
HSCCNRARQERLQRRRETQV (Biotin-HSCCNRARQERLQRRRETQV; cysteine pairing not given here) | INADL D3 | ZO-1 D2
ILNSIQVMRAQMNQIQSVEV | INADL D3 | ZO-1 D2
KHSRKSSSYSSSSTTVKTSY | INADL D3 | ZO-1 D2
KKKKQPGNSTKESESTNSVRLML | INADL D3 | ZO-1 D2
LASKSAEEGKQIPDSLSTDL | INADL D3 | –
LAVLAYSITLVMLWSIWQYA | INADL D3 | ZO-1 D2
LNSCSNRRVYKKMPSIESDV (Biotin-LNSCSNRRVYKKMPSIESDV) | INADL D3 | ZO-I D2
LQFHRGSRAQSFLQTETSVI | INADL D3 | –
NYKLNTDHAGSNDNIALLVQ (Biotin-NYKLNTDHAGSNDNIALLVQ) | – | ZO-1 D2
PGQPPKVKSEFNSYSLTGYV | INADL D3 | –
PIPAGGCTFSGIFPTLTSPL | INADL D3 | –
PSSRASSRASSRPRPDDLEI | – | ZO-1 D2
QDFRRAFRRILARPWTQTAW | INADL D3 | ZO-1 D2
RELVDRGEVRQFTLRHWLKV | INADL D3 | ZO-I D2
RRRRRRRGNTTDKELEVLSL | – | ZO-1 D2
RRRRRRRGTNPAVAATSANL | – | ZO-1 D2
RSGATIPLVGQDIIDLQTEV | INADL D3 | –
SLIGPVQKEYQRELGKLSSP | INADL D3 | –

Sequence | PDZ domain bound (INADL d3) | PDZ domain bound (ZO-1 d2)
SSKSKSSEESQTFFGLYKL | INADL D3 | ZO-1 D2
SSSRRDSSWSETSEASYSGL | – | ZO-1 D2
STDNLVRPFMDTLASHQLYI | INADL D3 | –
TEGNESSEATSPVNAIYSLA | – | ZO-1 D2
TQGFPGPATWRRISSLESEV | INADL D3 | –
TTNNNPNSAVNIKKIFTDV (Biotin-TTNNNPNSAVNIKKIFTDV) | INADL D3 | ZO-1 D2
VDPNSPAAKKKYVSYNNLVI (Biotin-VDPNSPAAKKKYVSYNNLVI) | INADL D3 | ZO-1 D2
VHKVRNKFKAKCSLCRLYII (Biotin-VHKVRNKFKAKCSLCRLYII; cysteine pairing not given here) | INADL D3 | ZO-1 D2
VPSDNIDSQGRNASTNDSLL (Biotin-VPSDNIDSQGRNASTNDSLL) | INADL D3 | –
YGRKKRRQRRRARGDRKRIV (Biotin-YGRKKRRQRRRARGDRKRIV) | – | ZO-1 D2
YGRKKRRQRRRARGDRKRWA (Biotin-YGRKKRRQRRRARGDRKRWA) | – | ZO-1 D2
YGRKKRRQRRRARGDRKRWL (Biotin-YGRKKRRQRRRARGDRKRWL) | – | ZO-1 D2
YGRKKRRQRRRARSDRGIWA (Biotin-YGRKKRRQRRRARSDRGIWA) | – | ZO-1 D2
YGRKKRRQRRRAVAAASANL (Biotin-YGRKKRRQRRRAVAAASANL) | – | ZO-1 D2
YGRKKRRQRRRAVAATSANL | INADL D3 | ZO-1 D2
YGRKKRRQRRRAVAATYSNL (Biotin-YGRKKRRQRRRAVAATYSNL) | – | ZO-1 D2
YGRKKRRQRRRDKELEVLSL | – | ZO-1 D2
YGRKKRRQRRREYLGLDVPV | INADL D3 | ZO-1 D2
YGRKKRRQRRRGASADSTQA | – | ZO-1 D2
YGRKKRRQRRRKLSSIESDV (Biotin-YGRKKRRQRRRKLSSIESDV) | – | ZO-1 D2
YGRKKRRQRRRNDNIALLVQ | – | ZO-1 D2
YGRKKRRQRRRQDEEEGIWA (Biotin-YGRKKRRQRRRQDEEEGIWA) | – | ZO-1 D2
YGRKKRRQRRRSEGVPDLLV | – | ZO-1 D2
YSATYSELEDPGEMSPPIDL (Biotin-YSATYSELEDPGEMSPPIDL) | INADL D3 | –
YVYSRVKNLNSSEGVPDLLV (Biotin-YVYSRVKNLNSSEGVPDLLV) | – | ZO-1 D2

From patent US20080119412A1, “Polypeptides for Modulating Binding of Trp Channel Proteins and Trp- Associated Proteins” (NoNO Inc., priority 2003, published 2008)
